Assay: soluble on expression in E. coli; label from the status in PepcDB or PDB records
For “MGSDKIHHHHHHMENQEKPLSVDEEYDLWKSNVPLMYDFVSETRLTWPSLTVQWLPTPVQELDGGFIKQELIIGTHTSGEEENYLKFAEINLPKEILSNEDPQEEAGEEYQSSLPAPRSNIRITAKYEHEEEITRARYMPQDPNIVATINGQGTVFLYSRSEGLQSTLKFHKDNGYALSFSTLVKGRLLSGSDDHTVALWEVGSGGDPTKPVRTWNDLHSDIINDNKWHNFNKDLFGTVSEDSLLKINDVRANNTTIDTVKCPQPFNTLAFSHHSSNLLAAAGMDSYVYLYDLRNMKEPLHHMSGHEDAVNNLEFSTHVDGVVVSSGSDNRLMMWDLKQIGAEQTPDDAEDGVPELIMVHAGHRSSVNDFDLNPQIPWLVASAEEENILQVWKCSHSLPIVGGPPKVNKDIIS”, the “soluble on expression in E. coli” value was “not soluble”.
In the case of “MSLNVDVLLKNVWLYQTVTQTFVQRNVAIKNDKFYYIYEEENVNLQPQKTINAENQWMIPGLIDAHMHIESSMTTPTIFSKAVVRYGVTTVIADAHEMANVFGLEGLKAFMAAETELDIFHAIPSSVPSTTPELETTGGIIGLAEVAELLKEPKVICLGEAMNFKGISYEPDSLIRQIIDLCQKQRPTMPLEGHCPKIEDQELADFLYSGITSDHTHQFPKTLKEKIEAGVFIQFQNKSITPENIQVIVDNDFYNYASIITDDVMADDLLKGHLNENVKKAVHAGLPIEKAIYMATYTPAKRMGLHDRGEIAPGKKADFLLLNDLESFDINTVYKSGKVVFEKGEPFHYPEKIEEFPATYQQTIQCKKLTEEDLLLKVATTKETVRCNVIQKQEIGTFTERITKEIPVENGLLQWQKANCALLIVMERYGKNGNISFSLMDQPLSEKGAIATTWAHDHHNLMVMGNTIEDILLAQNELLAMQGGYLVASDQQVMATCPLPIGGILSQAPIEQLGASLQKVRQAMQALGYQNMNEIMSFSTLSLPVSPAIKVTDFGMMDTKSQRFYPLVFPEDGVLLHENTHEGHHHHHH”, the “soluble on expression in E. coli” value is reported as “soluble”.
For “MSLRVMIVDDHGTNRELCRFILAHIASHIDTFEDGQQAIDAMREMEILPDVILLDVMMPIKDGFVTAKEIRQAFVKHHIPIIFLTVLDDRDSFEKCLALGDDFILKPVERSVLIAKVQAHYRIVKMHNEGHHHHHH”, the “soluble on expression in E. coli” value was “not soluble”.
With “MSLSELVRKLSGTAPNPAFPRGAVDTQMHMYLPGYPALPGGPGLPPGALPGPEDYRRLMQWLGIDRVIITQGNAHQRDNGNTLACVAEMGEAAHAVVIIDATTTEKDMEKLTAAGTVGARIMDLPGGAVNLSELDAVDERAHAADWMVAVQFDGNGLLDHLPRLQKIRSRWVFDHHGKFFKGIRTDGPEMAALLKLIDRGNLWFKFAGVYESSRKSWPYADVAAFSRVIAAHAPERIVWGTNWPHNSVRETAAYPDDARLAELTLGWLPDEAARHRALVENPEALFKLSPVKEGHHHHHH” the “soluble on expression in E. coli” value was “soluble”.
With “MSLKISLENVGCASQIGKRKENEDRFDFAQLTDEVLYFAVYDGHGGPAAADFCHTHMEKCIMDLLPKEKNLETLLTLAFLEIDKAFSSHARLSADATLLTSGTTATVALLRDGIELVVASVGDSRAILCRKGKPMKLTIDHTPERKDEKERIKKCGGFVAWNSLGQPHVNGRLAMTRSIGDLDLKTSGVIAEPETKRIKLHHADDSFLVLTTDGINFMVNSQEICDFVNQCHDPNEAAHAVTEQAIQYGTEDNSTAVVVPFGAWGKYKNSEINFSFSRSFASSGRWAEGHHHHHH” the “soluble on expression in E. coli” value was “soluble”.
With “MNRMEYNPIKKVVSGNYAAAYAALHARVQVVAAYPITPQTSIIEKIAEFIANGEADIQYIPVESEHSAMAACIGASATGARVFTATSAQGLALMHEMLHWAAGSRLPIVMVNVNRAMAPPWSVWDDQTDSLSQRDTGWMQFYAENNQEVYDGVLMAYKVAETVNIPTMIIESAFILSHTYEVVNMIPQELVDEFLPPRKPLYTLTDFENPIAVGALATPADYYEFRYKIAKAHEEAKKVIKSVGKEFGERFGRDYSKMIETGYIEDADFVFMGMGSLMGTVKEAVDLLRKEGYKVGYAKVRWFRPFPKEELLEIAESVKGIAVLDRNFSFGQEGILFTEAKGALYNTGVRPIMKDYIVGLGGRDFTVRDVKAIAEDMKKVVESGKLDKEIEWYHLKR” the “soluble on expression in E. coli” value was “soluble”.
